Test results taken from PMC5979328, “Establishing a Split Luciferase Assay for Proteinkinase G (PKG) Interaction Studies” (International Journal of Molecular Sciences, 2018).

T1: cGKIα-CBRC (proteinkinase G isoform Iα fused at its C-terminus to the C-terminal fragment of click beetle red … (UniProt P00516 1-671))
T1 construct: cGMP-dependent protein kinase I, alpha isoform (cGKIα, PKGIα); also called PKGIα; cGMP dependent kinase Iα; source: COS-7 cells, calcium phosphate transfection, in living cells; not shown: CBRC (click beetle red luciferase aa 395-542; joined by a 17-residue Gly/Ser linker), C-terminal, kept
T1 sequence (looked up): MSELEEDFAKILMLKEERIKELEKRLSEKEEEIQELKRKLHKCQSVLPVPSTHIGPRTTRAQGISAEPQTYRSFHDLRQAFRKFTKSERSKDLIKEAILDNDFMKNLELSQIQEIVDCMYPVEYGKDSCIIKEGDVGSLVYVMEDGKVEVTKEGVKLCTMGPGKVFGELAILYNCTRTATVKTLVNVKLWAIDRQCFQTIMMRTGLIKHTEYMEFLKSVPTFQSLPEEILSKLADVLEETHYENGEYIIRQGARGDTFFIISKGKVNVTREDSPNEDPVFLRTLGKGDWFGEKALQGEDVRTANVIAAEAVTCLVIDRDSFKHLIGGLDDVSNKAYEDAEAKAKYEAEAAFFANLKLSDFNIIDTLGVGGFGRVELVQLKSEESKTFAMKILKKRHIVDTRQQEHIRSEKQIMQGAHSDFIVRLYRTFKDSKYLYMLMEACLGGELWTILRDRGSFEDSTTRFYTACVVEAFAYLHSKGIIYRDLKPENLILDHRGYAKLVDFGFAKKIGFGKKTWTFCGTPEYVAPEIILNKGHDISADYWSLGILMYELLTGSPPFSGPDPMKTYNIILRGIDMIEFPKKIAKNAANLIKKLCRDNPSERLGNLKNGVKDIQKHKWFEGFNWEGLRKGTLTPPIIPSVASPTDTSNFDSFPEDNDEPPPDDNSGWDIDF


Experiments:
[1] = target: T1, cGKIα-CBRC (proteinkinase G isoform Iα …); assay: split reporter (BiFC, NanoBiT); click beetle red luciferase complementation (CBRN/CBRC) in co-transfected COS-7 cells, 15 µg DNA, vector ratios 1:25 to 1:100 (mostly 1:50); cells untreated or stimulated for 24 h with 8-Br-cGMP (0.5-2.5 mM), 8-pCPT-cGMP (100-500 µM) or 8-Br-cAMP (0.125-1 mM); Bright-Glo reagent, plate reader, RLU; conditions: partners not purified
[2] = target: the molecule itself; assay: Western blot of monomer and dimer under non-reducing conditions; primary mesangial cells, control or stimulated with H2O2, non-reducing conditions (Figure S3)

| Binder | fold signal amplification (100 µM 8-pCPT-cGMP, treated/untreated) [1] [fold] | fold signal amplification (200 µM 8-pCPT-cGMP, treated/untreated) [1] [fold] | fold signal amplification (0.5 mM 8-Br-cGMP, treated/untreated) [1] [fold] | fold signal amplification (500 µM 8-pCPT-cGMP, treated/untreated) [1] [fold] | fold signal amplification (1 mM 8-Br-cGMP, 24 h, against basal luminescence) [1] [fold] | fold signal amplification (1 mM 8-Br-cGMP, treated/untreated) [1] [fold] | fold signal amplification (2.5 mM 8-Br-cGMP, treated/untreated) [1] [fold] | stoichiometry N [2] |
| --- | --- | --- | --- | --- | --- | --- | --- | --- |
| CBRN-RGS2 (regulator of G-protein signaling 2 fused at its N-terminus to the N-terminal fragment of click beetle red luciferase) (natural protein, UniProt P41220 1-211, looked up, regulator of G-protein signaling 2 (RGS2); cDNA from pCMV6_RGS2 (OriGene); source: COS-7 cells, calcium phosphate transfection, in living cells; not shown: CBRN (click beetle red luciferase aa 1-416; joined by a 17-residue Gly/Ser linker), N-terminal, kept) MQSAMFLAVQHDCRPMDKSAGSGHKSEEKREKMKRTLLKDWKTRLSYFLQNSSTPGKPKTGKKSKQQAFIKPSPEEAQLWSEAFDELLASKYGLAAFRAFLKSEFCEENIEFWLACEDFKKTKSPQKLSSKARKIYTDFIEKEAPKEINIDFQTKTLIAQNIQEATSGCFTTAQKRVYSLMENNSYPRFLESEFYQDLCKKPQITTEPHAT | 3.5 | 3.8 | 2.2 | 3.9 | ~3.5 | 3.6 | 2.8 | – |
| cGKIα in primary mesangial cells (enzyme, UniProt P0C605 1-671, looked up, cGMP-dependent protein kinase I, alpha isoform, in primary mesangial cells; also called the kinase; PKGIα) MSELEEDFAKILMLKEERIKELEKRLSEKEEEIQELKRKLHKCQSVLPVPSTHIGPRTTRAQGISAEPQTYRSFHDLRQAFRKFTKSERSKDLIKEAILDNDFMKNLELSQIQEIVDCMYPVEYGKDSCIIKEGDVGSLVYVMEDGKVEVTKEGVKLCTMGPGKVFGELAILYNCTRTATVKTLVNVKLWAIDRQCFQTIMMRTGLIKHTEYMEFLKSVPTFQSLPDEILSKLADVLEETHYENGEYIIRQGARGDTFFIISKGQVNVTREDSPSEDPVFLRTLGKGDWFGEKALQGEDVRTANVIAAEAVTCLVIDRDSFKHLIGGLDDVSNKAYEDAEAKAKYEAEAAFFANLKLSDFNIIDTLGVGGFGRVELVQLKSEESKTFAMKILKKRHIVDTRQQEHIRSEKQIMQGAHSDFIVRLYRTFKDSKYLYMLMEACLGGELWTILRDRGSFEDSTTRFYTACVVEAFAYLHSKGIIYRDLKPENLILDHRGYAKLVDFGFAKKIGFGKKTWTFCGTPEYVAPEIILNKGHDISADYWSLGILMYELLTGSPPFSGPDPMKTYNIILRGIDMIEFPKKIAKNAANLIKKLCRDNPSERLGNLKNGVKDIQKHKWFEGFNWEGLRKGTLTPPIIPSVASPTDTSNFDSFPEDSDEPPPDDNSGWDIDF | – | – | – | – | – | – | – | 2 |
